Reference: patent US20110256062A1 (MEDICAL RESEARCH COUNCIL, published 2011)
Blank lines part the entries; values can stand above or below the molecule they belong to.

Tests used:
[1] = molecular target: full-length GFP-LRRK2[G2019S] mutant (human) (UniProt Q5S007); assay: SILAC mass spectrometry of GFP-binder immunoprecipitates from HEK-293 lysates; range told of the group of isoforms
[2] = molecular target: wild type full-length GFP-LRRK2 (human) (UniProt Q5S007); assay: as above
[3] = molecular target: T1, full length human FLAG-LRRK2 (wild type) (human, UniProt Q5S007 1-2527, phosphoserine at 860, 910, 935, 955, 973 and 976 (mass spectrometry)); assay: glutathione-Sepharose affinity purification of GST tagged 14-3-3 isoforms from HEK-293 cells expressing FLAG-LRRK2, anti-FLAG immunoblot
T1 construct: mature; also called full length LRRK2
Method: FIG. 2. […] A.) 5 mg of Swiss 3T3 lysate was subjected to immunoprecipitation with control IgG or anti-LRRK2 (S348C) antibody. Immunoprecipitates were resolved on 4-12% Novex SDS-polyacrylamide gel and immunoblotted with antibodies against LRRK2 (S374C), Hsp90 and pan 14-3-3. B.) 5 mg of Swiss 3T3 lysate was subjected to immunoprecipitation with anti-pan 14-3-3 antibodies and immunoprecipitates were resolved on 4-12% Novex SDS-polyacrylamide gels and immunoblotted with antibodies against pan-14-3-3 and LRRK2 (S374C). […] 36 hours post transfection cells were lysed and glutathione-Sepharose affinity purified proteins immunoblotted with anti-GST or anti-FLAG antibodies. D.) Fragments encoding the indicated domains of LRRK2 were transiently expressed in HEK-293 cells and immunoprecipitated with anti-FLAG antibodies. The immunoprecipitates were resolved on 4-12% Novex SDS-polyacrylamide gels and probed with either anti-FLAG antibodies or 14-3-3 overlay with digoxigenin labeled 14-3-3 in a far western assay. […] E.) Endogenous LRRK2 was immunoprecipitated from Swiss 3T3 cells with anti-LRRK2 (S348C) and subsequently treated with λ-phosphatase in the absence or presence of EDTA prior to immunoblot analysis with indicated antibodies or a 14-3-3 overlay assay. F.) As in E, except experiment undertaken with immunoprecipitated FLAG-LRRK2 obtained following transient transfection in HEK-293 cells.
Immunological procedures. Cell lysates (10-30 μg) were resolved by electrophoresis on SDS polyacrylamide gels or Novex 4-12% gradient gels, and electroblotted to nitrocellulose membranes. Membranes were blocked with 5% skimmed milk (w/v) in 50 mM Tris/HCl, pH 7.5, 0.15 M NaCl and 0.1% (v/v) Tween (TBST Buffer). For phospho-antibodies, primary antibody was used at a concentration of 1 μg/ml, diluted in 5% skimmed milk in TBST with the inclusion of 10 μg/ml dephosphorylated-peptide.

T1 sequence (Q5S007 whole entry, canonical isoform): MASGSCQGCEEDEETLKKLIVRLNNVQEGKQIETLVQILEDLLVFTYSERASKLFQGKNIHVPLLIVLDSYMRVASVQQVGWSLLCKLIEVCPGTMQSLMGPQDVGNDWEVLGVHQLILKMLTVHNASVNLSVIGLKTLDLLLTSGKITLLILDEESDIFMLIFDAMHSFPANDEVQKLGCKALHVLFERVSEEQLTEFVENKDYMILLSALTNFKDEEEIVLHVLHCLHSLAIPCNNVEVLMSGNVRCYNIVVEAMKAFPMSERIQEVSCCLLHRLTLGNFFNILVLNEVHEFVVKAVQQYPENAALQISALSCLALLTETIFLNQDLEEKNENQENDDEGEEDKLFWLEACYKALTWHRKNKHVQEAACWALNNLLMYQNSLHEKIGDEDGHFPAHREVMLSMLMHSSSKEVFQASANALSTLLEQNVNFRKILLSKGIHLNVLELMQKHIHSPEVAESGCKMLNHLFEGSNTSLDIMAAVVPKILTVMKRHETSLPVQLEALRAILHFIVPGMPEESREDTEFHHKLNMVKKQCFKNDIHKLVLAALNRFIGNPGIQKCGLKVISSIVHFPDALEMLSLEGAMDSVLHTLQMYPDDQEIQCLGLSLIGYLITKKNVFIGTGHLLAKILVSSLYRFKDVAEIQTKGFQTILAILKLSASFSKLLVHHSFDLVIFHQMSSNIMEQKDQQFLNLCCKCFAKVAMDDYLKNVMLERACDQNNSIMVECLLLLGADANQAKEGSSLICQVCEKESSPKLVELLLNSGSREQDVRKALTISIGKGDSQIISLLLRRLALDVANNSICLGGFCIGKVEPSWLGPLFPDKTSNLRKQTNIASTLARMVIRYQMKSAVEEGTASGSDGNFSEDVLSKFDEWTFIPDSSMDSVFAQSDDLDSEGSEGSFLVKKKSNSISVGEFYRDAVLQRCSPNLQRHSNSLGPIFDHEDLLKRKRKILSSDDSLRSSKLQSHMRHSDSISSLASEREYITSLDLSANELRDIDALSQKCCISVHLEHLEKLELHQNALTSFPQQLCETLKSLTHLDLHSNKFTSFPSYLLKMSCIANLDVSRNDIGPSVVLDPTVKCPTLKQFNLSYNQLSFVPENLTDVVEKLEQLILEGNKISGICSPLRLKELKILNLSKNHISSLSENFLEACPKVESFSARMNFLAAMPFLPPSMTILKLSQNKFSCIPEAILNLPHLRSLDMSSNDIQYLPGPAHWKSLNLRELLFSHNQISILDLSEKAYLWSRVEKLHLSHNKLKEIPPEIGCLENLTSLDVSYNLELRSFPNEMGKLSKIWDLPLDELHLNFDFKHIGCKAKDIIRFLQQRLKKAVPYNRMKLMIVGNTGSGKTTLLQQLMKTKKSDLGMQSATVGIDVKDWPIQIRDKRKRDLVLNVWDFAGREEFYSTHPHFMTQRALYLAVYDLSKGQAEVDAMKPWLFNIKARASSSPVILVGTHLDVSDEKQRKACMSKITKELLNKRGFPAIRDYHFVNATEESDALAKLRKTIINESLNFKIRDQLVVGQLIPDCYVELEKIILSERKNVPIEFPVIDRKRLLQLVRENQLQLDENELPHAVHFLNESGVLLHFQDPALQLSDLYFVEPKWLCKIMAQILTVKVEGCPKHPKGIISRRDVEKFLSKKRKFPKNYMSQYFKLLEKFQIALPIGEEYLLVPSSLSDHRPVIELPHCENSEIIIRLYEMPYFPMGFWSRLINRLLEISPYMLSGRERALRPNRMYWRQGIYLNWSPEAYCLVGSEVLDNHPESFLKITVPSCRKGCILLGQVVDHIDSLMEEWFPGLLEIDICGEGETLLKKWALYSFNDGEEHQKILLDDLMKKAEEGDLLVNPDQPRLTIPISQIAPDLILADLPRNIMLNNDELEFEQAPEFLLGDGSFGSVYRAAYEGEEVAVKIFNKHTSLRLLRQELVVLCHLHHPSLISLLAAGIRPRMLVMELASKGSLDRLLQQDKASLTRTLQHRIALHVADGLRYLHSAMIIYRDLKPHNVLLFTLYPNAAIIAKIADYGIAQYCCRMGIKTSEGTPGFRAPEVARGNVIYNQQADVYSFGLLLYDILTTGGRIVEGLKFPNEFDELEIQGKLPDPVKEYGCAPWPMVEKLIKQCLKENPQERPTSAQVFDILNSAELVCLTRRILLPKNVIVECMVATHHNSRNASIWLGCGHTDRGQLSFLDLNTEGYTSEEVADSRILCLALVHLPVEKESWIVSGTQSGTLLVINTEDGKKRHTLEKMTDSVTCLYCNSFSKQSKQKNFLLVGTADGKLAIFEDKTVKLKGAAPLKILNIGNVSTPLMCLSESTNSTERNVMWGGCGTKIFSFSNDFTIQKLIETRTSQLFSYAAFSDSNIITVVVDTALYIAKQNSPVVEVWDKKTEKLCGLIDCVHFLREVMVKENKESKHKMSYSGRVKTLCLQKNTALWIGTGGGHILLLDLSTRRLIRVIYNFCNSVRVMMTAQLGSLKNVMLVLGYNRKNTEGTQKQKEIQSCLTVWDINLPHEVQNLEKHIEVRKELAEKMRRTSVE
Sequence of full-length GFP-LRRK2[G2019S] mutant (human) (Q5S007 whole entry G2019S, canonical isoform): as the sequence (Q5S007 whole entry, canonical isoform) above, with G2019S counted along it
Sequence of wild type full-length GFP-LRRK2 (human) (Q5S007 whole entry, canonical isoform): as the sequence (Q5S007 whole entry, canonical isoform) above

fold enrichment compared to GFP alone [1]: 10 to 30 fold | fold enrichment compared to GFP alone [2]: 10 to 30 fold
Molecule: endogenous 14-3-3 in 293 cells

binding result [3]: binds
B1: GST tagged human 14-3-3 epsilon (other)
chain: MDDREDLVYQAKLAEQAERYDEMVESMKKVAGMDVELTVEERNLLSVAYKNVIGARRASWRIISSIEQKEENKGGEDKLKMIREYRQMVETELKLICCDILDVLDKHLIPAANTGESKVFYYKMKGDYHRYLAEFATGNDRKEAAENSLVAYKAASDIAMTELPPTHPIRLGLALNFSVFYYEILNSPDRACRLAKAAFDDAIAELDTLSEESYKDSTLIMQLLRDNLTLWTSDMQGDGEEQNKEALQDVEDENQ
notes: As for GST tagged 14-3-3 beta; also called GST-14-3-3 epsilon; not shown: GST tag from the pEBG plasmid

binding result [3]: binds
B2: GST tagged human 14-3-3 gamma (other)
chain: MVDREQLVQKARLAEQAERYDDMAAAMKNVTELNEPLSNEERNLLSVAYKNVVGARRSSWRVISSIEQKTSADGNEKKIEMVRAYREKIEKELEAVCQDVLSLLDNYLIKNCSETQYESKVFYLKMKGDYYRYLAEVATGEKRATVVESSEKAYSEAHEISKEHMQPTHPIRLGLALNYSVFYYEIQNAPEQACHLAKTAFDDAIAELDTLNEDSYKDSTLIMQLLRDNLTLWTSDQQDDDGGEGNN
notes: As for GST tagged 14-3-3 beta; also called GST-14-3-3 gamma; not shown: GST tag from the pEBG plasmid

binding result [3]: binds
B3: GST tagged human 14-3-3 eta (other)
chain: MGDREQLLQRARLAEQAERYDDMASAMKAVTELNEPLSNEDRNLLSVAYKNVVGARRSSWRVISSIEQKTMADGNEKKLEKVKAYREKIEKELETVCNDVLSLLDKFLIKNCNDFQYESKVFYLKMKGDYYRYLAEVASGEKKNSVVEASEAAYKEAFEISKEQMQPTHPIRLGLALNFSVFYYEIQNAPEQACLLAKQAFDDAIAELDTLNEDSYKDSTLIMQLLRDNLTLWTSDQQDEEAGEGN
notes: As for GST tagged 14-3-3 beta; also called GST-14-3-3 eta; not shown: GST tag from the pEBG plasmid

binding result [3]: binds
B4: GST tagged human 14-3-3 beta (other)
chain: MTMDKSELVQKAKLAEQAERYDDMAAAMKAVTEQGHELSNEERNLLSVAYKNVVGARRSSWRVISSIEQKTERNEKKQQMGKEYREKIEAELQDICNDVLELLDKYLIPNATQPESKVFYLKMKGDYFRYLSEVASGDNKQTTVSNSQQAYQEAFEISKKEMQPTHPIRLGLALNFSVFYYEILNSPEKACSLAKTAFDEAIAELDTLNEESYKDSTLIMQLLRDNLTLWTSENQGDEGDAGEGEN
notes: One of all seven isoforms of human 14-3-3 expressed from pEBG plasmids; also called GST-14-3-3 beta; not shown: GST tag from the pEBG plasmid

binding result [3]: binds
B5: GST tagged human 14-3-3 zeta (other)
chain: MDKNELVQKAKLAEQAERYDDMAACMKSVTEQGAELSNEERNLLSVAYKNVVGARRSSWRVVSSIEQKTEGAEKKQQMAREYREKIETELRDICNDVLSLLEKFLIPNASQAESKVFYLKMKGDYYRYLAEVAAGDDKKGIVDQSQQAYQEAFEISKKEMQPTHPIRLGLALNFSVFYYEILNSPEKACSLAKTAFDEAIAELDTLSEESYKDSTLIMQLLRDNLTLWTSDTQGDEAEAGEGGEN
notes: As for GST tagged 14-3-3 beta; also called GST-14-3-3 zeta; not shown: GST tag from the pEBG plasmid

binding result [3]: no binding
B6: GST tagged human 14-3-3 sigma (other)
chain: MERASLIQKAKLAEQAERYEDMAAFMKGAVEKGEELSCEERNLLSVAYKNVVGGQRAAWRVLSSIEQKSNEEGSEEKGPEVREYREKVETELQGVCDTVLGLLDSHLIKEAGDAESRVFYLKMKGDYYRYLAEVATGDDKKRIIDSARSAYQEAMDISKKEMPPTNPIRLGLALNFSVFHYEIANSPEEAISLAKTTFDEAMADLHTLSEDSYKDSTLIMQLLRDNLTLWTADNAGEEGGEAPQEPQS
notes: As for GST tagged 14-3-3 beta; also called atypical sigma isoform; not shown: GST tag from the pEBG plasmid

binding result [3]: binds
B7: GST tagged human 14-3-3 theta (other)
chain: MEKTELIQKAKLAEQAERYDDMATCMKAVTEQGAELSNEERNLLSVAYKNVVGGRRSAWRVISSIEQKTDTSDKKLQLIKDYREKVESELRSICTTVLELLDKYLIANATNPESKVFYLKMKGDYFRYLAEVACGDDRKQTIDNSQGAYQEAFDISKKEMQPTHPIRLGLALNFSVFYYEILNNPELACTLAKTAFDEAIAELDTLNEDSYKDSTLIMQLLRDNLTLWTSDSAGEECDAAEGAEN
notes: As for GST tagged 14-3-3 beta; also called GST-14-3-3 theta; not shown: GST tag from the pEBG plasmid
